B1: PrgH (natural protein)
chain: METSKEKTITSPGPYIVRLLNSSLNGCEFPLLTGRTLFVVGQSDALTASGQLPDIPADSFFIPLDHGGVNFEIQVDTDATEIILHELKEGNSESRSVQLNTPIQVGELLILIRPESEPWVPEQPEKLETSAKKNEPRFKNGIVAALAGFFILGIGTVGTLWILNSPQRQAAELDSLLGQEKERFQVLPGRDKMLYVAAQNERDTLWARQVLARGDYDKNARVINENEENKRISIWLDTYYPQLAYYRIHFDEPRKPVFWLSRQRNTMSKKELEVLSQKLRALMPYADSVNITLMDDVTAAGQAEAGLKQQALPYSRRNHKGGVTFVIQGALDDVEILRARQFVDSYYRTWGGRYVQFAIELKDDWLKGRSFQYGAEGYIKMSPGHWYFPSPL
B2: PrgK (natural protein)
chain: CKDKDLLKGLDQEQANEVIAVLQMHNIEANKIDSGKLGYSITVAEPDFTAAVYWIKTYQLPPRPRVEIAQMFPADSLVSSPRAEKARLYSAIEQRLEQSLQTMEGVLSARVHISYDIDAGENGRPPKPVHLSALAVYERGSPLAHQISDIKRFLKNSFADVDYDNISVVLSERSDAQLQAPGTPVKRNSFATSWIVLIILLSVMSAGFGVWYYKNHYARNKKGITADDKAKSSNE
B3: InvG (natural protein)
chain: SEKIPVTGSGFVAKDDSLRTFFDAMALQLKEPVIVSKMAARKKITGNFEFHDPNALLEKLSLQLGLIWYFDGQAIYIYDASEMRNAVVSLRNVSLNEFNNFLKRSGLYNKNYPLRGDNRKGTFYVSGPPVYVDMVVNAATMMDKQNDGIELGRQKIGVMRLNNTFVGDRTYNLRDQKMVIPGIATAIERLLQGEEQPLGNIVSSEPPAMPAFSANGEKGKAANYAGGMSLQEALKQNAAAGNIKIVAYPDTNSLLVKGTAEQVHFIEMLVKALDVAKRHVELSLWIVDLNKSDLERLGTSWSGSITIGDKLGVSLNQSSISTLDGSRFIAAVNALEEKKQATVVSRPVLLTQENVPAIFDNNRTFYTKLIGERNVALEHVTYGTMIRVLPRFSADGQIEMSLDIEDGNDKTPQSDTTTSVDALPEVGRTLISTIARVPHGKSLLVGGYTRDANTDTVQSIPFLGKLPLIGSLFRYSSKNKSNVVRVFMIEPKEIVDPLTPDASESVNNILKQSGAWSGDDKLQKWVRVYLDRGQEAIK
B4: SpaQ (natural protein)
chain: MDDLVFAGNKALYLVLILSGWPTIVATIIGLLVGLFQTVTQLQEQTLPFGIKLLGVCLCLFLLSGWYGEVLLSYGRQVIFLALAKG
B5: SpaP (natural protein)
chain: MGNDISLIALLAFSTLLPFIIASGTCFVKFSIVFVMVRNALGLQQIPSNMTLNGVALLLSMFVMWPIMHDAYVYFEDEDVTFNDISSLSKHVDEGLDGYRDYLIKYSDRELVQFFENAQLKRQYGEETETVKRDKDEIEKPSIFALLPAYALSEIKSAFKIGFYLYLPFVVVDLVVSSVLLALGMMMMSPVTISTPIKLVLFVALDGWTLLSKGLILQYMDIAT

Target: the molecule itself
Assay: cryo-EM structure

Row | Protein | stoichiometry N
1 | B1 | 23
2 | B2 | 23
3 | B3 | 15

Target: the molecule itself
Assay: cryo-EM structure
Remark: another data set of the same source

Row | Protein | stoichiometry N
4 | B4 | 4
5 | B5 | 5
6 | B1 | 24
7 | B2 | 24
8 | B3 | 16
